Test results taken from the supplement of paper PMC9170038.

Test system: MS2 coat protein
Experiment: apparent KD of MS2 coat protein; designed switch direction (-1 OFF switch, 1 ON switch): -1; higher = weaker reporter binding
Summary of the method: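 Transcription of designed RNA switches on Illumina chips was done by stalled E. coli RNA polymerase. SNAP-549-labelled MS2 coat protein was then titrated in doubling steps from 0.7 or 1.5 nM to 3 µM, with steps of 0.8–1.5 h at the lowest and 10–20 min at the highest concentration. The per-design median over clusters of curve-fitted normalised fluorescence is reported as apparent KD.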

[1] = Eterna round: R95, input ligand: FMN 200 uM
[2] = Eterna round: R95, input ligand: microRNA oligo, concentration not stated
[3] = Eterna round: R95, input ligand: none
[4] = input ligand: microRNA oligo, concentration not stated

AAGAGCGUAGGAUAUACAUGAGGAUCACCCAUGUGUGGAGGACCUGGCCACAUAAGGAGUAGAAGGGCGCAUCU [Eternabot (L2) Solution 92] (Eterna round: R97, puzzle: Exclusion 3)
apparent KD of MS2 coat protein (input ligand: FMN 200 uM): 110 nM
apparent KD of MS2 coat protein (input ligand: none): 87 nM

AGUUGGCGAGGAUAUACAUGAGGAUCACCCAUGUGAGAGAAAAAAGUGAGGAAGAAAAGUAGAAGGCGCUGACG [salish99_ex3_r3_040] (puzzle: Exclusion 3)
apparent KD of MS2 coat protein [1]: 61.2 nM
apparent KD of MS2 coat protein [2]: 38.5 nM
apparent KD of MS2 coat protein [3]: 40.1 nM

CGGAUGUUAGGAUAUUAGUAGUAGUCAGAAAAGACUAUUACUGAGAAGGAACAUGAGGAUCACCCAUGUUUCCG [Mat - Exclusion 4 - Eli Mod - D44] (Eterna round: R97, puzzle: Exclusion 4)
apparent KD of MS2 coat protein (input ligand: FMN 200 uM): 17 nM
apparent KD of MS2 coat protein (input ligand: none): 15.4 nM

UUUCGGCAUGUAGGAUAUGGAUCCGAUUAGGAUUUAGAAGGACAUGAGGAUCACCCAUGUGCAUUUAAUUAGUCAUUACCGUUU [EXclNG1-LROPPY07] (Eterna round: R96, puzzle: Exclusion NG 1)
apparent KD of MS2 coat protein (input ligand: FMN 200 uM): 79.9 nM
apparent KD of MS2 coat protein [4]: 42.8 nM
apparent KD of MS2 coat protein (input ligand: none): 67.1 nM

UUCGGCGCAGGAUAUACAGUUUUGUGUUGAAUCGGCGCGAAACAUGAGGAUCACCCAUGUAGAAGGGUGUUGAA [-24.2, -22.3 kcal, A 27%] (Eterna round: R97, puzzle: Exclusion 2)
apparent KD of MS2 coat protein (input ligand: FMN 200 uM): 736 nM
apparent KD of MS2 coat protein (input ligand: none): 1220 nM

GUUUGACAUGAGGAUCACCCAUGUAAGGAUAUACGAGUAGAUGAUAGAUAGAUAGUAAGUAGAAGGUACGUGUU [Translation] (Eterna round: R97, puzzle: Exclusion 1)
apparent KD of MS2 coat protein (input ligand: FMN 200 uM): 70.6 nM
apparent KD of MS2 coat protein (input ligand: none): 105 nM

AGCUGUGGCCGAGGAUAUCUGAACCUUCAAACCGAAAUAUAAUCGGACAUGAGGAUCACCCAUGUAGAGAAGGCGGUCUCAGCA [Eli eng2 - 060] (Eterna round: R96, puzzle: Exclusion NG 2)
apparent KD of MS2 coat protein [4]: 9.95 nM

UGUUGUUCAGGAUAUGAUGUAUAAUACAUGAGGAUCACCCAUGUAGAUCCUGAAUUAACAUCAGAAGGGAAUAUUU [JL-ex5-4.59 Brourd mod] (Eterna round: R97, puzzle: Exclusion 5)
apparent KD of MS2 coat protein (input ligand: FMN 200 uM): 19.8 nM
apparent KD of MS2 coat protein (input ligand: none): 17.2 nM

GGUGCGUUUGUGAGGAUAUGCUGGUCCUUGGAUCAGCAGAAGGCACAUGAGGAUCACCCAUGUGGUGUCGUACC [salish99_Bmod_Ex4_030] (puzzle: Brourd's mod of Exclusion 4)
apparent KD of MS2 coat protein [2]: 273 nM

CUUUCGUGAGGAUAUCAGUAGUAAAAUAAUAAAAUUACUACUGAGAAGGCACAUGAGGAUCACCCAUGUUCCUC [salish99_ex3_r3_099] (puzzle: Exclusion 4)
apparent KD of MS2 coat protein [2]: 24.9 nM

GUUAUGUUAGGAUAUGCUUAUGGUGGGUGCUCAGACAUGAUGCAGAAGGGACAUGAGGAUCACCCAUGUACUGU [EX4 #19] (Eterna round: R97, puzzle: Exclusion 4)
apparent KD of MS2 coat protein (input ligand: FMN 200 uM): 777 nM
apparent KD of MS2 coat protein (input ligand: none): 991 nM

UUGCAGUCGUCAGGAUAUAGUAUUACGGCCUUUCAUUUCUUCAUACAUGAGGAUCACCCAUGUCGCUAGAAGGGCUUCUCGCUU [salish99_ExNG2_r04_109] (Eterna round: R96, puzzle: Exclusion NG 2)
apparent KD of MS2 coat protein (input ligand: FMN 200 uM): 15.3 nM
apparent KD of MS2 coat protein [4]: 14.6 nM
apparent KD of MS2 coat protein (input ligand: none): 17.6 nM

UACAUGAGGAUCACCCAUGUUUUGUCGUGUAUGGUAUUUAUCUAGGAUAUCAAUGUAUUUAUGUAUGAGAAGGAGAAUAUUAAU [JMF's solution 47] (Eterna round: R96, puzzle: Exclusion NG 3)
apparent KD of MS2 coat protein [4]: 32.3 nM

UAUUAACAAGCUAGAUCCCACAUGAGGAUCACCCAUGUGCUCGUCUUAUAAGGUACUGUGACGAAAGUCACGGUACC [Sensor 3, v1 - 78] (puzzle: Sensor v3, turn-off variant 1)
apparent KD of MS2 coat protein [1]: 37.8 nM
apparent KD of MS2 coat protein [2]: 188 nM
apparent KD of MS2 coat protein [3]: 32.3 nM

UCGACGUCGUCAGGAUAUAGUCUUAAUGUCAUGCUUUUGUUCGUACAUGAGGAUCACCCAUGUGGCUAGAAGGGACUAAAGAUU [JR_ExcNG2_Sub015] (Eterna round: R96, puzzle: Exclusion NG 2)
apparent KD of MS2 coat protein (input ligand: FMN 200 uM): 12.3 nM
apparent KD of MS2 coat protein [4]: 10.1 nM
apparent KD of MS2 coat protein (input ligand: none): 15.8 nM

AAAUAACAAGCGAGAUCCUACAUGAGGAUCACCCAUGUGCUCGUCUUAAUAAGUACUAUCACGAAAGUGAUAGUACA [Mat - Sensor v3 - turn-off var 1 - Eli Mod - D67] (Eterna round: R96, puzzle: Sensor v3, turn-off variant 1)
apparent KD of MS2 coat protein (input ligand: FMN 200 uM): 15.8 nM
apparent KD of MS2 coat protein [4]: 333 nM
apparent KD of MS2 coat protein (input ligand: none): 18.2 nM

UAACUUCUUGUAAGGAUAUCGGCGCGAAAGCGCAACGAGAAGGUACAUGAGGAUCACCCAUGUGAAAUAAGAAU [Mod of Zala 12 - Jieux - Brourd's Mod of Exclusion 4] (Eterna round: R97, puzzle: Brourd's mod of Exclusion 4)
apparent KD of MS2 coat protein (input ligand: FMN 200 uM): 104 nM
apparent KD of MS2 coat protein (input ligand: none): 28.3 nM

AAGUACCGUCACGAUAGUGAUGGUACAACAAGCAUGUAAACAUGAGGAUCACCCAUGUCCUCAAUUGCUCGUCUUAU [Sensor 3 - 68] (Eterna round: R96, puzzle: Sensor v3, turn-off variant 2)
apparent KD of MS2 coat protein (input ligand: FMN 200 uM): 956 nM
apparent KD of MS2 coat protein [4]: 809 nM
apparent KD of MS2 coat protein (input ligand: none): 1060 nM

AAGUAUAGAGGAUAUAGUAGGUACUACAUGAGGAUCACCCAUGUUCUUCAUUACGUAUUUCUAGAAGGCUGAUAAA [EX-5 Malc#26] (puzzle: Exclusion 5)
apparent KD of MS2 coat protein [1]: 484 nM
apparent KD of MS2 coat protein [2]: 174 nM
apparent KD of MS2 coat protein [3]: 268 nM

AAGAAACAUGAGGAUCACCCAUGUGAGGAUAUGUAAAAGAAAAUAAAAUAAAGAAGAAACAGAAGGCACAAAGG [Mat - Mod of Hog D20] (puzzle: Exclusion 1)
apparent KD of MS2 coat protein [1]: 53.4 nM
apparent KD of MS2 coat protein [2]: 43.4 nM
apparent KD of MS2 coat protein [3]: 43 nM

GAAAAGGUAGGAUAUACGAAAAGAAAGGGUAGAAAGAAAACACAUGAGGAUCACCCAUGUAGAAGGACCAAAAG [salish99_ex2_r3_095] (puzzle: Exclusion 2)
apparent KD of MS2 coat protein [1]: 37.3 nM
apparent KD of MS2 coat protein [2]: 14.6 nM
apparent KD of MS2 coat protein [3]: 26.8 nM

CGUGGUAGGCAGGAUAUUUUAGACAAUUACUUGAAAGAAGGGCCUACAUGAGGAUCACCCAUGUGCUCUUCUUG [EX6 B.3] (Eterna round: R97, puzzle: Exclusion 6)
apparent KD of MS2 coat protein (input ligand: FMN 200 uM): 16.9 nM
apparent KD of MS2 coat protein (input ligand: none): 16.8 nM

UAUAUAUAGUAAGGAUAUGUAUUAAUUUGAUAAACAGAAGGUACUGACAUGAGGAUCACCCAUGUUUUAGUGUGGGCAUGUAGA [JMF's solution 84] (Eterna round: R96, puzzle: Exclusion NG 1)
apparent KD of MS2 coat protein [4]: 75.6 nM

CCGAAGUCCUGCGGAGUUCACAUGAGGAUCACCCAUGUAGGCGAGGAUAUUUAUGAUACAUGAGUAAAGAAGGCGUCUGGUAAA [Eternabot solution 26] (Eterna round: R96, puzzle: Exclusion NG 3)
apparent KD of MS2 coat protein (input ligand: FMN 200 uM): 40.7 nM
apparent KD of MS2 coat protein [4]: 18.2 nM
apparent KD of MS2 coat protein (input ligand: none): 29.1 nM

CGAUGUUAUGUCAGGAUAUGCAUUGCGAAAGCAAUGCAGAAGGGACAUGAGGAUCACCCAUGUCCUAACCAUCG [Omei A 4] (puzzle: Brourd's mod of Exclusion 4)
apparent KD of MS2 coat protein [2]: 11.1 nM

UUUUUCAGGCCAGAUCCUCACAUGAGGAUCACCCAUGUGCUCGUCUGUUUUCGCUCUUUCUUUUUUUUGGUUGUGCU [Level Boss var2-18] (puzzle: Sensor v3, turn-off variant 1)
apparent KD of MS2 coat protein [1]: 174 nM
apparent KD of MS2 coat protein [2]: 31.2 nM
apparent KD of MS2 coat protein [3]: 259 nM

GGUACUCAAAGAGUACCAAUACGAACAUGAGGAUCACCCAUGUAGGAUAUGCUACUCAAAGAGUAGCAGAAGGACGUGUGCCUU [Far Half Aptamer v4] (Eterna round: R96, puzzle: Exclusion NG 3)
apparent KD of MS2 coat protein [4]: 15.6 nM

UACUUAUGAGUCAGGAUAUGUGAGGCGGAAGCGAUACAGAAGGGACAUGAGGAUCACCCAUGUUGGGUUCCUGU [Eternabot (Original) Solution 32] (Eterna round: R97, puzzle: Brourd's mod of Exclusion 4)
apparent KD of MS2 coat protein (input ligand: FMN 200 uM): 526 nM
apparent KD of MS2 coat protein (input ligand: none): 83.5 nM

GAUUAUGCGAGCUUUAGGGACAUGAGGAUCACCCAUGUUCGUCUUAUUGGUCUAGGUACACUAACAUACCUAAAUCU [JMF 19] (puzzle: Sensor v3, turn-off variant 1)
apparent KD of MS2 coat protein [1]: 20.4 nM
apparent KD of MS2 coat protein [2]: 38.9 nM
apparent KD of MS2 coat protein [3]: 21.3 nM

AAGAGAGCAGGAUAUACAUGAGGAUCACCCAUGUGGGAAAUAAGUGGCGUACCACAAAGUAGAAGGGCUUUCCA [jl-ex3-4.80 Eli automod] (Eterna round: R97, puzzle: Exclusion 3)
apparent KD of MS2 coat protein (input ligand: FMN 200 uM): 310 nM
apparent KD of MS2 coat protein (input ligand: none): 86.2 nM

AUGUUACUCUGAGGAUAUUGUUUAUUCUUCUCACAUGAGGAUCACCCAUGUUUCCAUGUUAACCGCAAGAAGGCAGUAUUGAUU [JR_ExcNG2_Sub030] (Eterna round: R96, puzzle: Exclusion NG 2)
apparent KD of MS2 coat protein (input ligand: FMN 200 uM): 76.1 nM
apparent KD of MS2 coat protein [4]: 49.1 nM
apparent KD of MS2 coat protein (input ligand: none): 55.1 nM

GUUUCACAUGAGGAUCACCCAUGUGAGGAUAUGGAUUCGCUGGCCGUAGCCAGUGGAUCCAGAAGGCGCGUGAU [JL-ex1-4.21] (Eterna round: R97, puzzle: Exclusion 1)
apparent KD of MS2 coat protein (input ligand: FMN 200 uM): 60.5 nM
apparent KD of MS2 coat protein (input ligand: none): 61.7 nM

UGUUGUCGCGUAGGAUAUGCAUGAGGAUCACCCAUGCAAUUAGAGUUAACAUGAGGAUCACCCAUGUAGAAGGGCGGGACAACU [pwkr exNG2 2xF5 1xFMN.7] (Eterna round: R96, puzzle: Exclusion NG 2)
apparent KD of MS2 coat protein (input ligand: FMN 200 uM): 62.8 nM
apparent KD of MS2 coat protein [4]: 42.2 nM
apparent KD of MS2 coat protein (input ligand: none): 51.2 nM
